Starred links: 1 amine or outer side, 2 acyl side, 3 side chain; linkers in the order of their positions; H or OH if unused. Non-standard residues stand in square brackets, D forms with d. Groups on a side chain read outwards from the residue. No end group written: not given here. *: point of attachment. C20 diacid = O=C(O)CCCCCCCCCCCCCCCCCCC(=O)*; αMePhe(2-F) = C[C@](N)(Cc1ccccc1F)C(=O)O; γGlu = O=C(O)[C@H](CCC(=O)[*:2])N[*:1]; αMeF = C[C@](N)(Cc1ccccc1)C(=O)O; 4Pal = N[C@@H](Cc1ccncc1)C(=O)O; αMeL = CC(C)C[C@](C)(N)C(=O)O; AEEA = NCCOCCOCC(=O)O; Aib = CC(C)(N)C(=O)O

Experiment [1] addresses T1, human GLP-1 receptor (human, UniProt P43220 24-463).
T1 construct: whole, on cells; Assayed as crude membranes of stably transfected HEK293 cells; also called hGLP1R; hGLP-1R
Put plainly: SPA, displacement of [125I]-GLP-1 from hGLP-1R membranes, 0.1% bacitracin. Summed up:
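Binding buffer: 25 mM HEPES pH 7.4, 2.5 mM CaCl₂, 1 mM MgCl₂, 0.1% bacitracin, 0.003% Tween-20, protease inhibitors without EDTA. Four-parameter nonlinear regression; Kᵢ given as geometric mean ± SEM, n = independent replicates run on different days.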
For orientation: In a radioligand displacement assay an active substance lowers the binding of a labelled ligand.

The target in experiment [2] is T2, human glucagon receptor (human, UniProt P47871 26-477).
T2 construct: whole, on cells; Assayed as crude membranes of stably transfected HEK293 cells; also called hGcgR; GcgR
T2 sequence (P47871 26-477): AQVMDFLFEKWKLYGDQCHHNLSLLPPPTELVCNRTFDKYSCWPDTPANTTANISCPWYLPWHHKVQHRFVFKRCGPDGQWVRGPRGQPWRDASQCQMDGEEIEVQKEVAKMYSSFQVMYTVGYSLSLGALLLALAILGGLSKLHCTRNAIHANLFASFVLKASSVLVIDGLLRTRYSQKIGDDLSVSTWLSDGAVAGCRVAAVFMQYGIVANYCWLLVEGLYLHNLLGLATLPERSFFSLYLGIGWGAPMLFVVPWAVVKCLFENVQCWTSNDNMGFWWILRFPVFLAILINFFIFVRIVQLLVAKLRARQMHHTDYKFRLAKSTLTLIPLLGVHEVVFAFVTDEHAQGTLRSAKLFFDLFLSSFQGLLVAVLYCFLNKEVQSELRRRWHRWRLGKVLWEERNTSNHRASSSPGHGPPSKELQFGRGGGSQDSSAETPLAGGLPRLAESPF
Nature of the experiment: SPA, displacement of [125I]-Gcg from hGcgR membranes, 0.1% bacitracin. A digest of the protocol: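 Binding buffer: 25 mM HEPES pH 7.4, 2.5 mM CaCl₂, 1 mM MgCl₂, 0.003% Tween-20, protease inhibitors without EDTA. Counted by scintillation after 12 h incubation/settling at room temperature. Four-parameter nonlinear fit; Kᵢ given as geometric mean ± SEM of independent replicates run on different days.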

The target in experiment [3] is T3, human glucose-dependent insulinotropic polypeptide (GIP) receptor (human, UniProt P48546 22-466).
T3 construct: whole, on cells; Assayed as crude membranes of stably transfected CHO cells; also called hGIPR; human GIP receptor
T3 sequence (looked up): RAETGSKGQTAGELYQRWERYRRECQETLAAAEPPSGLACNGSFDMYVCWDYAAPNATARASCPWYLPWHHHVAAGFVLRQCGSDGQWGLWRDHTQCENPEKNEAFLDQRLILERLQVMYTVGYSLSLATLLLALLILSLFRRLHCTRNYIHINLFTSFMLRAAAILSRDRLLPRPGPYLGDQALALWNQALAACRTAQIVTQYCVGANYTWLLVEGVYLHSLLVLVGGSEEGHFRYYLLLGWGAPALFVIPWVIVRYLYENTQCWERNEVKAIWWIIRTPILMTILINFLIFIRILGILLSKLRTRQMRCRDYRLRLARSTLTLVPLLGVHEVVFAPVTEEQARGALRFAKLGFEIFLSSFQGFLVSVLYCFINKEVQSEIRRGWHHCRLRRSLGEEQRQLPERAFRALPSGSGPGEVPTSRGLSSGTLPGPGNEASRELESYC
Put plainly: SPA, displacement of [125I]-GIP from hGIPR membranes, 0.1% bacitracin.

B1: Example 51 (peptide)
peptide: Y[Aib]EGT[αMePhe(2-F)]ISDYSI[αMeL]LDKK([AEEA-AEEA-γGlu-C20 diacid])HQ[Aib]DFVE[4Pal]LLAGGPSSGAPPPS-NH2
modifications: N-terminus assumed
SMILES: CC[C@H](C)[C@H](NC(=O)[C@H](CO)NC(=O)[C@H](Cc1ccc(O)cc1)NC(=O)[C@H](CC(=O)O)NC(=O)[C@H](CO)NC(=O)[C@@H](NC(=O)[C@](C)(Cc1ccccc1F)NC(=O)[C@@H](NC(=O)CNC(=O)[C@H](CCC(=O)O)NC(=O)C(C)(C)NC(=O)[C@@H](N)Cc1ccc(O)cc1)[C@@H](C)O)[C@@H](C)CC)C(=O)N[C@@](C)(CC(C)C)C(=O)N[C@@H](CC(C)C)C(=O)N[C@@H](CC(=O)O)C(=O)N[C@@H](CCCCN)C(=O)N[C@@H](CCCCNC(=O)COCCOCCNC(=O)COCCOCCNC(=O)CC[C@H](NC(=O)CCCCCCCCCCCCCCCCCCC(=O)O)C(=O)O)C(=O)N[C@@H](Cc1c[nH]cn1)C(=O)N[C@@H](CCC(N)=O)C(=O)NC(C)(C)C(=O)N[C@@H](CC(=O)O)C(=O)N[C@@H](Cc1ccccc1)C(=O)N[C@H](C(=O)N[C@@H](CCC(=O)O)C(=O)N[C@@H](Cc1ccncc1)C(=O)N[C@@H](CC(C)C)C(=O)N[C@@H](CC(C)C)C(=O)N[C@@H](C)C(=O)NCC(=O)NCC(=O)N1CCC[C@H]1C(=O)N[C@@H](CO)C(=O)N[C@@H](CO)C(=O)NCC(=O)N[C@@H](C)C(=O)N1CCC[C@H]1C(=O)N1CCC[C@H]1C(=O)N1CCC[C@H]1C(=O)N[C@@H](CO)C(N)=O)C(C)C
A word on the Ki: it is a dissociation constant, usually derived from enzyme kinetics or from competition with a known ligand. For the molecule B1, the inhibition constant Ki in experiment [1] was 54.1 nM; in experiment [2], 26.7 nM; in experiment [3] it was 0.0386 nM.

B2: Example 69 (peptide)
peptide: Y[Aib]EGTFISDYSI[αMeL]LDKK([AEEA-AEEA-γGlu-C20 diacid])HQ[Aib]DFVEYLLEGGPSSGAPPPS-NH2
modifications: N-terminus assumed
SMILES: CC[C@H](C)[C@H](NC(=O)[C@H](Cc1ccccc1)NC(=O)[C@@H](NC(=O)CNC(=O)[C@H](CCC(=O)O)NC(=O)C(C)(C)NC(=O)[C@@H](N)Cc1ccc(O)cc1)[C@@H](C)O)C(=O)N[C@@H](CO)C(=O)N[C@@H](CC(=O)O)C(=O)N[C@@H](Cc1ccc(O)cc1)C(=O)N[C@@H](CO)C(=O)N[C@H](C(=O)N[C@@](C)(CC(C)C)C(=O)N[C@@H](CC(C)C)C(=O)N[C@@H](CC(=O)O)C(=O)N[C@@H](CCCCN)C(=O)N[C@@H](CCCCNC(=O)COCCOCCNC(=O)COCCOCCNC(=O)CC[C@H](NC(=O)CCCCCCCCCCCCCCCCCCC(=O)O)C(=O)O)C(=O)N[C@@H](Cc1c[nH]cn1)C(=O)N[C@@H](CCC(N)=O)C(=O)NC(C)(C)C(=O)N[C@@H](CC(=O)O)C(=O)N[C@@H](Cc1ccccc1)C(=O)N[C@H](C(=O)N[C@@H](CCC(=O)O)C(=O)N[C@@H](Cc1ccc(O)cc1)C(=O)N[C@@H](CC(C)C)C(=O)N[C@@H](CC(C)C)C(=O)N[C@@H](CCC(=O)O)C(=O)NCC(=O)NCC(=O)N1CCC[C@H]1C(=O)N[C@@H](CO)C(=O)N[C@@H](CO)C(=O)NCC(=O)N[C@@H](C)C(=O)N1CCC[C@H]1C(=O)N1CCC[C@H]1C(=O)N1CCC[C@H]1C(=O)N[C@@H](CO)C(N)=O)C(C)C)[C@@H](C)CC
For B2, the inhibition constant (Ki) is 144 nM in experiment [1], 114 nM in experiment [2] and 0.0406 nM in experiment [3].

B3: Example 61 (peptide)
peptide: Y[Aib]EGT[αMeF]ISDYSI[αMeL]LDKK([AEEA-AEEA-γGlu-C20 diacid])HQ[Aib]EFVE[4Pal]LLATGPSSGAPPPS-NH2
modifications: N-terminus assumed
SMILES: CC[C@H](C)[C@H](NC(=O)[C@H](CO)NC(=O)[C@H](Cc1ccc(O)cc1)NC(=O)[C@H](CC(=O)O)NC(=O)[C@H](CO)NC(=O)[C@@H](NC(=O)[C@](C)(Cc1ccccc1)NC(=O)[C@@H](NC(=O)CNC(=O)[C@H](CCC(=O)O)NC(=O)C(C)(C)NC(=O)[C@@H](N)Cc1ccc(O)cc1)[C@@H](C)O)[C@@H](C)CC)C(=O)N[C@@](C)(CC(C)C)C(=O)N[C@@H](CC(C)C)C(=O)N[C@@H](CC(=O)O)C(=O)N[C@@H](CCCCN)C(=O)N[C@@H](CCCCNC(=O)COCCOCCNC(=O)COCCOCCNC(=O)CC[C@H](NC(=O)CCCCCCCCCCCCCCCCCCC(=O)O)C(=O)O)C(=O)N[C@@H](Cc1c[nH]cn1)C(=O)N[C@@H](CCC(N)=O)C(=O)NC(C)(C)C(=O)N[C@@H](CCC(=O)O)C(=O)N[C@@H](Cc1ccccc1)C(=O)N[C@H](C(=O)N[C@@H](CCC(=O)O)C(=O)N[C@@H](Cc1ccncc1)C(=O)N[C@@H](CC(C)C)C(=O)N[C@@H](CC(C)C)C(=O)N[C@@H](C)C(=O)N[C@H](C(=O)NCC(=O)N1CCC[C@H]1C(=O)N[C@@H](CO)C(=O)N[C@@H](CO)C(=O)NCC(=O)N[C@@H](C)C(=O)N1CCC[C@H]1C(=O)N1CCC[C@H]1C(=O)N1CCC[C@H]1C(=O)N[C@@H](CO)C(N)=O)[C@@H](C)O)C(C)C
In the case of B3, the results for the inhibition constant (Ki) in experiment [1], in experiment [2] and in experiment [3] were 135 nM, 80.4 nM and 0.0665 nM, respectively.

B4: Example 88 (peptide)
peptide: YXEGTXISDYSIXLDKKHQXDFVEXLLEAGPSSGAPPPS
modifications: Aib2; Iva6; αMeL13; K17((2-[2-(2-Amino-ethoxy)-ethoxy]-acetyl)2-(γ-Glu)-CO-(CH2)18-CO2H); Aib20; 4-Pal25; C-terminal amide
As to B4, the inhibition constant Ki is 261 nM in experiment [1], 788 nM in experiment [2] and 0.083 nM in experiment [3].

B5: Example 74 (peptide)
peptide: YXEGTXISDYSIXLDKKHQXDFVEXLLEGGPSSGAPPPS
modifications: Aib2; Iva6; αMeL13; K17((2-[2-(2-Amino-ethoxy)-ethoxy]-acetyl)2-(γ-Glu)-CO-(CH2)18-CO2H); Aib20; 4-Pal25; C-terminal amide
On to B5, for which the Ki came out at 395 nM in experiment [1], 511 nM in experiment [2] and 0.0287 nM in experiment [3].

B6: Example 62 (peptide)
peptide: Y[Aib]EGT[αMeF]ISDYSI[αMeL]LDKK([AEEA-AEEA-γGlu-C20 diacid])HQ[Aib]EFVE[4Pal]LLAAGPSSGAPPPS-NH2
modifications: N-terminus assumed
SMILES: CC[C@H](C)[C@H](NC(=O)[C@H](CO)NC(=O)[C@H](Cc1ccc(O)cc1)NC(=O)[C@H](CC(=O)O)NC(=O)[C@H](CO)NC(=O)[C@@H](NC(=O)[C@](C)(Cc1ccccc1)NC(=O)[C@@H](NC(=O)CNC(=O)[C@H](CCC(=O)O)NC(=O)C(C)(C)NC(=O)[C@@H](N)Cc1ccc(O)cc1)[C@@H](C)O)[C@@H](C)CC)C(=O)N[C@@](C)(CC(C)C)C(=O)N[C@@H](CC(C)C)C(=O)N[C@@H](CC(=O)O)C(=O)N[C@@H](CCCCN)C(=O)N[C@@H](CCCCNC(=O)COCCOCCNC(=O)COCCOCCNC(=O)CC[C@H](NC(=O)CCCCCCCCCCCCCCCCCCC(=O)O)C(=O)O)C(=O)N[C@@H](Cc1c[nH]cn1)C(=O)N[C@@H](CCC(N)=O)C(=O)NC(C)(C)C(=O)N[C@@H](CCC(=O)O)C(=O)N[C@@H](Cc1ccccc1)C(=O)N[C@H](C(=O)N[C@@H](CCC(=O)O)C(=O)N[C@@H](Cc1ccncc1)C(=O)N[C@@H](CC(C)C)C(=O)N[C@@H](CC(C)C)C(=O)N[C@@H](C)C(=O)N[C@@H](C)C(=O)NCC(=O)N1CCC[C@H]1C(=O)N[C@@H](CO)C(=O)N[C@@H](CO)C(=O)NCC(=O)N[C@@H](C)C(=O)N1CCC[C@H]1C(=O)N1CCC[C@H]1C(=O)N1CCC[C@H]1C(=O)N[C@@H](CO)C(N)=O)C(C)C
As to B6, the inhibitory constant (Ki) stood at 47.6 nM in experiment [1], 31.3 nM in experiment [2] and 0.0414 nM in experiment [3].

(Values after patent publication US20210032299A1 (Eli Lilly, published 2021).)
